For one substance, fluorescence of cleaved Boc-QAR-AMC (370 nm excitation, 450 nm emission), cell-based protease assay results are on record in patent publication US8354508B2.

This assay has as its target T1, Boc-QAR-AMC.
T1 sequence (peptide, N-terminal Boc; C-terminal AMC): QAR

human Pro115 on cells (enzyme) came in with a fluorescence of cleaved Boc-QAR-AMC (370 nm excitation, 450 nm emission), cell-based protease assay of 3 times.
